Data reported in paper PMC11912008.

Molecular target: Rabbit (Oryctolagus cuniculus) 80S ribosome (rabbit (endogenous in rabbit reticulocyte lysate)) (UniProt G1U0Q2)

Row | Substance | IC50 of inhibition of translation of nanoluciferase mRNA in RRL [nM]
1 | Refolded WT human angiogenin (from UniProt P03950 25-147) (enzyme) | 33
2 | Refolded angiogenin(K54E) (from UniProt P03950 25-147) (enzyme) | 440
